Reference: patent US20260265385A1 (ANAPTYSBIO, published 2026)

T1: recombinant human IL-2Rβ (extracellular domain, Ala1-Thr215) (human, UniProt P14784 27-240)
T1 construct: extracellular domain; Analyte in SPR; Ala1-Thr215 is counted on the mature protein; also called human LL-2Rβ; Human IL-2RB
T1 sequence (looked up): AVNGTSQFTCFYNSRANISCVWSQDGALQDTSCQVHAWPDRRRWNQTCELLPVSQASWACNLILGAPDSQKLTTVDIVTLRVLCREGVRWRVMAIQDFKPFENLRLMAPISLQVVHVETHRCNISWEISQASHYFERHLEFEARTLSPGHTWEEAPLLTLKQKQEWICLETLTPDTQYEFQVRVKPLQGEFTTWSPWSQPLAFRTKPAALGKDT

T2: recombinant cynomolgus IL-2Rβ (extracellular domain, Ala1-Thr215) (cynomolgus, UniProt Q38J85 27-240)
T2 construct: extracellular domain; Analyte in SPR; also called cynomolgus LL-2Rβ; Cyno IL-2RB
T2 sequence (looked up): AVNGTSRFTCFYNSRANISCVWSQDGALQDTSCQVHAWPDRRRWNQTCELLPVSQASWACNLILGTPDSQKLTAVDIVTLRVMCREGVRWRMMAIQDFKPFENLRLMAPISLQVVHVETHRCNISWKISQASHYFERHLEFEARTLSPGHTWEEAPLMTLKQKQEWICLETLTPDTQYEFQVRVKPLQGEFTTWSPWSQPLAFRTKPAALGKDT


Key:
[1] = target: T1, recombinant human IL-2Rβ (extracellular …); experiment: SPR, antibody captured on Protein A chip
Experimental: (§1) Surface plasmon resonance (SPR) was used to determine the binding affinities. The M6-1625 and M10-1275 antibodies were captured onto a Cytiva Protein A Chip for 60 seconds at 0.5 μg/mL for 60 seconds. The antibodies were exposed to recombinant human LL-2Rβ or cynomolgus LL-2Rβ (corresponding to residues Ala1-Thr215 of the extracellular domains excluding the signal peptide) at typical concentrations ranging from 0.4 nM to 11 nM with typical 300 second associations and 1200 second dissociations using a BiacoreS200 instrument. Sensorgrams were fit globally using a 1:1 binding model in the Biacore T200 Evaluation Software to calculate on- and off-rates and KD values.

[2] = target: T2, recombinant cynomolgus IL-2Rβ …; experiment: SPR, antibody captured on Protein A chip
Experimental: as §1

Row | Binder | Kd [1] [nM] | Kd [2] [nM]
1 | APE15279 (antibody, V domains shown, M6-p1625 series) VH: QVQLVQSGAEVKKPGASVKVSCKASGYTFTSQWIEWVRQAPGQGLEWMGEILPGSGSINHNEKFQGRVTMTRDTSTSTVYMELSSLRSEDTAVYYCTRHYGSFDYWGQGTTVTVSS VL: DIQMTQSPSSLSASVGDRVTITCKASQNVGTDVAWYQQKPGKAPKSLIYSASYRYSGVPSRFSGSGSGTDFTLTISSLQPEDFATYFCHQYESYPFTFGQGTKLEIKR | 0.522 | 0.533
2 | APE15299 (antibody, V domains shown, M6-p1625 series) VH: QVQLVQSGAEVKKPGASVKVSCKASGYSFSKHWIQWVRQAPGQGLEWMGEILPGSGSINHNEKFQGRVTMTRDTSTSTVYMELSSLRSEDTAVYYCTRHYGSFDYWGQGTTVTVSS VL: DIQMTQSPSSLSASVGDRVTITCKASQNVGTDVAWYQQKPGKAPKSLIYSASYRYSGVPSRFSGSGSGTDFTLTISSLQPEDFATYFCHQYESYPFTFGQGTKLEIKR | 0.348 | 0.39
3 | APE15300 (antibody, V domains shown, M6-p1625 series) VH: QVQLVQSGAEVKKPGASVKVSCKASGYAFVDNWIQWVRQAPGQGLEWMGEILPGSGSINHNEKFQGRVTMTRDTSTSTVYMELSSLRSEDTAVYYCTRHYGSFDYWGQGTTVTVSS VL: DIQMTQSPSSLSASVGDRVTITCKASQNVGTDVAWYQQKPGKAPKSLIYSASYRYSGVPSRFSGSGSGTDFTLTISSLQPEDFATYFCHQYESYPFTFGQGTKLEIKR | 1.41 | 1.16
4 | APE15283 (antibody, V domains shown, M6-p1625 series) VH: QVQLVQSGAEVKKPGASVKVSCKASGYKFSSYWIQWVRQAPGQGLEWMGEILPGSGSINHNEKFQGRVTMTRDTSTSTVYMELSSLRSEDTAVYYCTRHYGSFDYWGQGTTVTVSS VL: DIQMTQSPSSLSASVGDRVTITCKASQNVGTDVAWYQQKPGKAPKSLIYSASYRYSGVPSRFSGSGSGTDFTLTISSLQPEDFATYFCHQYESYPFTFGQGTKLEIKR | 0.312 | 0.318
5 | APE15292 (antibody, V domains shown, M6-p1625 series) VH: QVQLVQSGAEVKKPGASVKVSCKASGYTFITYWIEWVRQAPGQGLEWMGEILPGSGSINHNEKFQGRVTMTRDTSTSTVYMELSSLRSEDTAVYYCTRHYGSFDYWGQGTTVTVSS VL: DIQMTQSPSSLSASVGDRVTITCKASQNVGTDVAWYQQKPGKAPKSLIYSASYRYSGVPSRFSGSGSGTDFTLTISSLQPEDFATYFCHQYESYPFTFGQGTKLEIKR | 0.376 | 0.437
6 | APE15293 (antibody, V domains shown, M6-p1625 series) VH: QVQLVQSGAEVKKPGASVKVSCKASGYTFSSHWIQWVRQAPGQGLEWMGEILPGSGSINHNEKFQGRVTMTRDTSTSTVYMELSSLRSEDTAVYYCTRHYGSFDYWGQGTTVTVSS VL: DIQMTQSPSSLSASVGDRVTITCKASQNVGTDVAWYQQKPGKAPKSLIYSASYRYSGVPSRFSGSGSGTDFTLTISSLQPEDFATYFCHQYESYPFTFGQGTKLEIKR | 0.351 | 0.359
7 | APE15296 (antibody, V domains shown, M6-p1625 series) VH: QVQLVQSGAEVKKPGASVKVSCKASGYRFSTQWIEWVRQAPGQGLEWMGEILPGSGSINHNEKFQGRVTMTRDTSTSTVYMELSSLRSEDTAVYYCTRHYGSFDYWGQGTTVTVSS VL: DIQMTQSPSSLSASVGDRVTITCKASQNVGTDVAWYQQKPGKAPKSLIYSASYRYSGVPSRFSGSGSGTDFTLTISSLQPEDFATYFCHQYESYPFTFGQGTKLEIKR | 0.851 | 0.825
8 | APE15291 (antibody, V domains shown, M6-p1625 series) VH: QVQLVQSGAEVKKPGASVKVSCKASGYTFARHWIGWVRQAPGQGLEWMGEILPGSGSINHNEKFQGRVTMTRDTSTSTVYMELSSLRSEDTAVYYCTRHYGSFDYWGQGTTVTVSS VL: DIQMTQSPSSLSASVGDRVTITCKASQNVGTDVAWYQQKPGKAPKSLIYSASYRYSGVPSRFSGSGSGTDFTLTISSLQPEDFATYFCHQYESYPFTFGQGTKLEIKR | 1.98 | 2.68
9 | APE15285 (antibody, V domains shown, M6-p1625 series) VH: QVQLVQSGAEVKKPGASVKVSCKASGYIFASNWIQWVRQAPGQGLEWMGEILPGSGSINHNEKFQGRVTMTRDTSTSTVYMELSSLRSEDTAVYYCTRHYGSFDYWGQGTTVTVSS VL: DIQMTQSPSSLSASVGDRVTITCKASQNVGTDVAWYQQKPGKAPKSLIYSASYRYSGVPSRFSGSGSGTDFTLTISSLQPEDFATYFCHQYESYPFTFGQGTKLEIKR | 0.31 | 0.327

Stronger by Kd [1], values ahead:

Row | Kd [1] [nM] | Kd [2] [nM] | Binder
10 | 0.0566 | 0.0705 | APE15284 (antibody, V domains shown, M6-p1625 series) VH: QVQLVQSGAEVKKPGASVKVSCKASGYTFGRYWIQWVRQAPGQGLEWMGEILPGSGSINHNEKFQGRVTMTRDTSTSTVYMELSSLRSEDTAVYYCTRHYGSFDYWGQGTTVTVSS VL: DIQMTQSPSSLSASVGDRVTITCKASQNVGTDVAWYQQKPGKAPKSLIYSASYRYSGVPSRFSGSGSGTDFTLTISSLQPEDFATYFCHQYESYPFTFGQGTKLEIKR
11 | 0.172 | 0.199 | APE15288 (antibody, V domains shown, M6-p1625 series) VH: QVQLVQSGAEVKKPGASVKVSCKASGYSFRRHWIQWVRQAPGQGLEWMGEILPGSGSINHNEKFQGRVTMTRDTSTSTVYMELSSLRSEDTAVYYCTRHYGSFDYWGQGTTVTVSS VL: DIQMTQSPSSLSASVGDRVTITCKASQNVGTDVAWYQQKPGKAPKSLIYSASYRYSGVPSRFSGSGSGTDFTLTISSLQPEDFATYFCHQYESYPFTFGQGTKLEIKR
12 | 0.157 | 0.153 | APE15297 (antibody, V domains shown, M6-p1625 series) VH: QVQLVQSGAEVKKPGASVKVSCKASGYSFIIHWIQWVRQAPGQGLEWMGEILPGSGSINHNEKFQGRVTMTRDTSTSTVYMELSSLRSEDTAVYYCTRHYGSFDYWGQGTTVTVSS VL: DIQMTQSPSSLSASVGDRVTITCKASQNVGTDVAWYQQKPGKAPKSLIYSASYRYSGVPSRFSGSGSGTDFTLTISSLQPEDFATYFCHQYESYPFTFGQGTKLEIKR
13 | 0.261 | 0.305 | APE15290 (antibody, V domains shown, M6-p1625 series) VH: QVQLVQSGAEVKKPGASVKVSCKASGYPFTSYWIQWVRQAPGQGLEWMGEILPGSGSINHNEKFQGRVTMTRDTSTSTVYMELSSLRSEDTAVYYCTRHYGSFDYWGQGTTVTVSS VL: DIQMTQSPSSLSASVGDRVTITCKASQNVGTDVAWYQQKPGKAPKSLIYSASYRYSGVPSRFSGSGSGTDFTLTISSLQPEDFATYFCHQYESYPFTFGQGTKLEIKR
14 | 0.0867 | 0.0783 | APE15368 (antibody, V domains shown, M6-p1625 series) VH: QVQLVQSGAEVKKPGASVKVSCKVSGYTFTRFWIQWVRQAPGQGLEWMGEILPGSGSINHNEKFQGRVTMTRDTSTSTVYMELSSLRSEDTAVYYCTRHYGSFDYWGQGTTVTVSS VL: DIQMTQSPSSLSASVGDRVTITCKASQNVGTDVAWYQQKPGKAPKSLIYSASYRYSGVPSRFSGSGSGTDFTLTISSLQPEDFATYFCHQYESYPFTFGQGTKLEIKR
15 | 0.161 | 0.202 | APE15280 (antibody, V domains shown, M6-p1625 series) VH: QVQLVQSGAEVKKPGASVKVSCKASGYTFSRQWIEWVRQAPGQGLEWMGEILPGSGSINHNEKFQGRVTMTRDTSTSTVYMELSSLRSEDTAVYYCTRHYGSFDYWGQGTTVTVSS VL: DIQMTQSPSSLSASVGDRVTITCKASQNVGTDVAWYQQKPGKAPKSLIYSASYRYSGVPSRFSGSGSGTDFTLTISSLQPEDFATYFCHQYESYPFTFGQGTKLEIKR
16 | 0.0873 | 0.104 | APE15286 (antibody, V domains shown, M6-p1625 series) VH: QVQLVQSGAEVKKPGASVKVSCKASGYLFSRYWIQWVRQAPGQGLEWMGEILPGSGSINHNEKFQGRVTMTRDTSTSTVYMELSSLRSEDTAVYYCTRHYGSFDYWGQGTTVTVSS VL: DIQMTQSPSSLSASVGDRVTITCKASQNVGTDVAWYQQKPGKAPKSLIYSASYRYSGVPSRFSGSGSGTDFTLTISSLQPEDFATYFCHQYESYPFTFGQGTKLEIKR
17 | 0.0981 | 0.132 | APE15298 (antibody, V domains shown, M6-p1625 series) VH: QVQLVQSGAEVKKPGASVKVSCKASGYIFSRYWIQWVRQAPGQGLEWMGEILPGSVSINHNEKFQGRVTMTRDTSTSTVYMELSSLRSEDTAVYYCTRHYGSFDYWGQGTTVTVSS VL: DIQMTQSPSSLSASVGDRVTITCKASQNVGTDVAWYQQKPGKAPKSLIYSASYRYSGVPSRFSGSGSGTDFTLTISSLQPEDFATYFCHQYESYPFTFGQGTKLEIKR
18 | 0.169 | 0.186 | APE15287 (antibody, V domains shown, M6-p1625 series) VH: QVQLVQSGAEVKKPGASVKVSCKASGYKFSRYWIQWVRQAPGQGLEWMGEILPGSGSINHNEKFQGRVTMTRDTSTSTVYMELSSLRSEDTAVYYCTRHYGSFDYWGQGTTVTVSS VL: DIQMTQSPSSLSASVGDRVTITCKASQNVGTDVAWYQQKPGKAPKSLIYSASYRYSGVPSRFSGSGSGTDFTLTISSLQPEDFATYFCHQYESYPFTFGQGTKLEIKR
